{"source": "patent US7371376", "key": {"[1]": {"target": "human ErbB2 receptor on BT474 human breast tumor cells (human) (UniProt P04626)", "test": "Scatchard analysis, 125I-antibody on BT474 cell monolayers, on ice"}, "[2]": {"target": "human ErbB2 receptor on BT474 human breast tumor cells (human) (UniProt P04626)", "test": "cell-based or functional assay"}}, "data": [{"substance": "anti-ErbB2 IgG1κ murine monoclonal antibody 4D5 (ATCC CRL 10463)", "values": [{"measurement": "Kd", "setting": "[1]", "value": 6.5, "unit": "nM"}, {"measurement": "% apoptosis of BT474 cell population (Hoechst 33342 cell cycle analysis, 3 days)", "setting": "[2]", "value": 41.9, "unit": "%"}, {"measurement": "proportion of S-phase cells (BT474, 3 days)", "setting": "[2]", "value": 5.4, "unit": "%"}]}]}
